Experimental data taken from patent US5602009, “Dominant negative chimeras of the steroid/thyroid superfamily of receptors” (The Salk Institute for Biological Studies).

Key:
[1] = system: glucocorticoid receptor (hGR) (Homo sapiens); assay: cell_activity; conditions: dexamethasone 1e-7 M, MTV-Luc in CV-1
[2] = molecular target: T1, retinoic acid receptor alpha (RARalpha) (UniProt P10276 P10276:1-462); assay: cell_activity; 100 nM RA, delta-MTV-TREp-CAT in CV-1
T1 sequence: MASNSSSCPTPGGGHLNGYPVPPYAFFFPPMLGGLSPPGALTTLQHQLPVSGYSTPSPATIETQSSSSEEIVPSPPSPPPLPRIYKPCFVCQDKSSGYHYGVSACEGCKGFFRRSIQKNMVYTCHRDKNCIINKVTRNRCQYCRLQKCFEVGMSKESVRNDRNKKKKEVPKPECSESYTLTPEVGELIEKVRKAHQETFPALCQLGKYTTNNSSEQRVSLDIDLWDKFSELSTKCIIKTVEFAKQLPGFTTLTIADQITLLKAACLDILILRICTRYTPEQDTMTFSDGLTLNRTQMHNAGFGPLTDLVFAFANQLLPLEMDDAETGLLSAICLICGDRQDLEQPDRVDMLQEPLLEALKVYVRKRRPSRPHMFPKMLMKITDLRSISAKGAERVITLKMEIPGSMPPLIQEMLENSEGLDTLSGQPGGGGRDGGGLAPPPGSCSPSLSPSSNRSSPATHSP

[3] = molecular target: T2, thyroid hormone receptor alpha (rTRalpha) (Rattus norvegicus, UniProt P63059-2 P63059-2:1-410); assay: cell_activity; T3 100 nM stimulation of tk-TREp-CAT in CV-1; 80% decrease of basal activity without hormone; conditions: tags: RSV expression vector RS-rTRalpha in CV-1 cells
T2 sequence: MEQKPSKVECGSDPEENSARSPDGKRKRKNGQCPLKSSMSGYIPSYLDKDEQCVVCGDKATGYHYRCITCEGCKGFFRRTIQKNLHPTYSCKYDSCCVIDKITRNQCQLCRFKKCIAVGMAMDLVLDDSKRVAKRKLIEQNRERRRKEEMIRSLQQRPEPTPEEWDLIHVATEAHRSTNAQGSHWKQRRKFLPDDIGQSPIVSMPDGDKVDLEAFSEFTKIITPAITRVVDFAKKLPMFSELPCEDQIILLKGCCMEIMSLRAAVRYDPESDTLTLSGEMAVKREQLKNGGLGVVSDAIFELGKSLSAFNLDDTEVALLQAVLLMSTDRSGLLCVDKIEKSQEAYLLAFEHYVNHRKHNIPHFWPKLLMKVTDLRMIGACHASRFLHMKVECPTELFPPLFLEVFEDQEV

“mouse mammary tumor virus (MTV) promoter” gave an activity [1] of 3000 fold.

B1: TREp palindromic thyroid response element (dsDNA)
DNA 1: TCAGGTCATGACCTGA
DNA 2: TCAGGTCATGACCTGA
For B1, the activity [2] was 25 fold and the activity [3] was 20 fold.
